# Results as given in patent publication US20240392004A1 (IMMUNOWAKE, published 2024).
# T1: human IL-2 receptor (IL-2Rα, IL-2Rβ, IL-2Rγ) (human, UniProt P01589 22-272; P14784 27-551; P31785 23-369)
# T1 sequence (looked up) 1: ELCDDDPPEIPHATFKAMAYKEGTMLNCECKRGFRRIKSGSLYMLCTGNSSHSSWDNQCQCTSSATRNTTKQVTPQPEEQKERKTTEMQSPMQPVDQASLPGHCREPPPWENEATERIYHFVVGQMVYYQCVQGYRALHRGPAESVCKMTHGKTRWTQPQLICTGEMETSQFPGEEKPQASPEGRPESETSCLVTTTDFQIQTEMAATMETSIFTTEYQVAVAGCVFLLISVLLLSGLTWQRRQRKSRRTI
# T1 sequence (looked up) 2: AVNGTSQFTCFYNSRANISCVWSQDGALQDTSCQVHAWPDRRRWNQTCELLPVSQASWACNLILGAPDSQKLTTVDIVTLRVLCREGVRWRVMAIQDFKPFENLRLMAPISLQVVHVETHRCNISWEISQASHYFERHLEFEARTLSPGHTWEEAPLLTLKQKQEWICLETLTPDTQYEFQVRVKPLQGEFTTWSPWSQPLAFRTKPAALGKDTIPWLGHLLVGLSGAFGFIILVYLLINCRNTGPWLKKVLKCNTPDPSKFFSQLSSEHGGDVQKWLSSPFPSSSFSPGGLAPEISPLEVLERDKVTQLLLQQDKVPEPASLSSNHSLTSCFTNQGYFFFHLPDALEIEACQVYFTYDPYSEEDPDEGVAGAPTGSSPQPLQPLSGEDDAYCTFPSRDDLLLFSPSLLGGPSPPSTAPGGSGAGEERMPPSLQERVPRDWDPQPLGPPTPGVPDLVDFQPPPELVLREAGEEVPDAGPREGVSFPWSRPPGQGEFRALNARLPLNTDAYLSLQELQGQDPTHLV
# T1 sequence (looked up) 3: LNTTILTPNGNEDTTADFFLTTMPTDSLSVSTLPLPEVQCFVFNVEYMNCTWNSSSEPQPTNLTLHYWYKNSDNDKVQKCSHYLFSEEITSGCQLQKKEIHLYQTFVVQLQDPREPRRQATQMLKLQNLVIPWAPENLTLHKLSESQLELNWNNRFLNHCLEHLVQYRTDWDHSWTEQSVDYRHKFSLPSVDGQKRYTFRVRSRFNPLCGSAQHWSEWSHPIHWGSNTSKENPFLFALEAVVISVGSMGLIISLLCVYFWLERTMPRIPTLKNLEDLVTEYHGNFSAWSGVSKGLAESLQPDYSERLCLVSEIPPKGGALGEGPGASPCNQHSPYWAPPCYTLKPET
# T2: human TIGIT on HEK-Blue reporter cells (human, UniProt Q495A1 22-244)
# T2 sequence (looked up): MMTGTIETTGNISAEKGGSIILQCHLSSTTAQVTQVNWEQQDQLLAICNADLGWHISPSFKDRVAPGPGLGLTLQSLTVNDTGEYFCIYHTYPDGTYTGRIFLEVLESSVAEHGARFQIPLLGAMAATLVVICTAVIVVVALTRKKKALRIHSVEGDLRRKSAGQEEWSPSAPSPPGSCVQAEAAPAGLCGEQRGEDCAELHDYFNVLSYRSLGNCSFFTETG
# Tests used:
# [1] = biological target: T1, human IL-2 receptor (IL-2Rα, IL-2Rβ, …); assay: cell-based or functional assay
# [2] = biological target: T2, human TIGIT on HEK-Blue reporter cells; assay: cell-based or functional assay
"IL-2 signal transduction, HEK-IL-2 [1] [%]","IL-2 signal transduction, HEK-IL-2-TIGIT [2] [%]",Binder
< 0.1,< 0.1,CD155-Fc (control) (Fc fusion) chain 1: WPPPGTGDVVVQAPTQVPGFLGDSVTLPCYLQVPNMEVTHVSQLTWARHGESGSMAVFHQTQGPSYSESKRLEFVAARLGAELRNASLRMFGLRVEDEGNYTCLFVTFPQGSRSVDIWLRVLAKPQNTAEVQKVQLTGEPVPMARCVSTGGRPPAQITWHSDLGGMPNTSQVPGFLSGTVTVTSLWILVPSSQVDGKNVTCKVEHESFEKPQLLTVNLTVYYPPEVSISGYDNNWYLGQNEATLTCDARSNPEPTGYNWSTTMGPLPPFAVAQGAQLLIRPVDKPINTTLICNVTNALGARQAELTVQVKEGPPSEHSGISRNGGGGSGGGDKTHTCPPCPAPEDEGGPSVFLFPPKPKDTLMISRTPEVTCVVVDVSHEDPEVKFNWYVDGVEVHNAKTKPREEQYNSTYRVVSVLTVLHQDWLNGKEYKCKVSNKALPAPIEKTISKAKGQPREPQVYVYPPSREEMTKNQVSLTCLVKGFYPSDIAVEWESNGQPENNYKTTPPVLDEDGSFALVSKLTVDKSRWQQGNVFSCSVMHEALHNHYTQKSLSLSPGK chain 2: WPPPGTGDVVVQAPTQVPGFLGDSVTLPCYLQVPNMEVTHVSQLTWARHGESGSMAVFHQTQGPSYSESKRLEFVAARLGAELRNASLRMFGLRVEDEGNYTCLFVTFPQGSRSVDIWLRVLAKPQNTAEVQKVQLTGEPVPMARCVSTGGRPPAQITWHSDLGGMPNTSQVPGFLSGTVTVTSLWILVPSSQVDGKNVTCKVEHESFEKPQLLTVNLTVYYPPEVSISGYDNNWYLGQNEATLTCDARSNPEPTGYNWSTTMGPLPPFAVAQGAQLLIRPVDKPINTTLICNVTNALGARQAELTVQVKEGPPSEHSGISRNGGGGSGGGDKTHTCPPCPAPEKKGGPSVFLFPPKPKDTLMISRTPEVTCVVVDVSHEDPEVKFNWYVDGVEVHNAKTKPREEQYNSTYRVVSVLTVLHQDWLNGKEYKCKVSNKALPAPIEKTISKAKGQPREPQVYVLPPSREEMTKNQVSLLCLVKGFYPSDIAVEWESNGQPENRYMTWPPVLDSDGSFFLYSKLTVDKSRWQQGNVFSCSVMHEALHNHYTQKSLSLSPGK
3,29,IL-2(R38D/K43E/E61R/Q126T)/CD155-Fc (Fc fusion) chain 1: WPPPGTGDVVVQAPTQVPGFLGDSVTLPCYLQVPNMEVTHVSQLTWARHGESGSMAVFHQTQGPSYSESKRLEFVAARLGAELRNASLRMFGLRVEDEGNYTCLFVTFPQGSRSVDIWLRVLAKPQNTAEVQKVQLTGEPVPMARCVSTGGRPPAQITWHSDLGGMPNTSQVPGFLSGTVTVTSLWILVPSSQVDGKNVTCKVEHESFEKPQLLTVNLTVYYPPEVSISGYDNNWYLGQNEATLTCDARSNPEPTGYNWSTTMGPLPPFAVAQGAQLLIRPVDKPINTTLICNVTNALGARQAELTVQVKEGPPSEHSGISRNGGGGSGGGDKTHTCPPCPAPEDEGGPSVFLFPPKPKDTLMISRTPEVTCVVVDVSHEDPEVKFNWYVDGVEVHNAKTKPREEQYNSTYRVVSVLTVLHQDWLNGKEYKCKVSNKALPAPIEKTISKAKGQPREPQVYVYPPSREEMTKNQVSLTCLVKGFYPSDIAVEWESNGQPENNYKTTPPVLDEDGSFALVSKLTVDKSRWQQGNVFSCSVMHEALHNHYTQKSLSLSPGK chain 2: WPPPGTGDVVVQAPTQVPGFLGDSVTLPCYLQVPNMEVTHVSQLTWARHGESGSMAVFHQTQGPSYSESKRLEFVAARLGAELRNASLRMFGLRVEDEGNYTCLFVTFPQGSRSVDIWLRVLAKPQNTAEVQKVQLTGEPVPMARCVSTGGRPPAQITWHSDLGGMPNTSQVPGFLSGTVTVTSLWILVPSSQVDGKNVTCKVEHESFEKPQLLTVNLTVYYPPEVSISGYDNNWYLGQNEATLTCDARSNPEPTGYNWSTTMGPLPPFAVAQGAQLLIRPVDKPINTTLICNVTNALGARQAELTVQVKEGPPSEHSGISRNGGGSGAPTSSSTKKTQLQLEHLLLDLQMILNGINNYKNPKLTDMLTFEFYMPKKATELKHLQCLERELKPLEEVLNLAQSKNFHLRPRDLISNINVIVLELKGSETTFMCEYADETATIVEFLNRWITFCTSIISTLTGGGGSGGGDKTHTCPPCPAPEKKGGPSVFLFPPKPKDTLMISRTPEVTCVVVDVSHEDPEVKFNWYVDGVEVHNAKTKPREEQYNSTYRVVSVLTVLHQDWLNGKEYKCKVSNKALPAPIEKTISKAKGQPREPQVYVLPPSREEMTKNQVSLLCLVKGFYPSDIAVEWESNGQPENRYMTWPPVLDSDGSFFLYSKLTVDKSRWQQGNVFSCSVMHEALHNHYTQKSLSLSPGK
9,56,IL-2(L18R/Q22E/R38D/K43E/E61R)/CD155-Fc (Fc fusion) chain 1: WPPPGTGDVVVQAPTQVPGFLGDSVTLPCYLQVPNMEVTHVSQLTWARHGESGSMAVFHQTQGPSYSESKRLEFVAARLGAELRNASLRMFGLRVEDEGNYTCLFVTFPQGSRSVDIWLRVLAKPQNTAEVQKVQLTGEPVPMARCVSTGGRPPAQITWHSDLGGMPNTSQVPGFLSGTVTVTSLWILVPSSQVDGKNVTCKVEHESFEKPQLLTVNLTVYYPPEVSISGYDNNWYLGQNEATLTCDARSNPEPTGYNWSTTMGPLPPFAVAQGAQLLIRPVDKPINTTLICNVTNALGARQAELTVQVKEGPPSEHSGISRNGGGGSGGGDKTHTCPPCPAPEDEGGPSVFLFPPKPKDTLMISRTPEVTCVVVDVSHEDPEVKFNWYVDGVEVHNAKTKPREEQYNSTYRVVSVLTVLHQDWLNGKEYKCKVSNKALPAPIEKTISKAKGQPREPQVYVYPPSREEMTKNQVSLTCLVKGFYPSDIAVEWESNGQPENNYKTTPPVLDEDGSFALVSKLTVDKSRWQQGNVFSCSVMHEALHNHYTQKSLSLSPGK chain 2: WPPPGTGDVVVQAPTQVPGFLGDSVTLPCYLQVPNMEVTHVSQLTWARHGESGSMAVFHQTQGPSYSESKRLEFVAARLGAELRNASLRMFGLRVEDEGNYTCLFVTFPQGSRSVDIWLRVLAKPQNTAEVQKVQLTGEPVPMARCVSTGGRPPAQITWHSDLGGMPNTSQVPGFLSGTVTVTSLWILVPSSQVDGKNVTCKVEHESFEKPQLLTVNLTVYYPPEVSISGYDNNWYLGQNEATLTCDARSNPEPTGYNWSTTMGPLPPFAVAQGAQLLIRPVDKPINTTLICNVTNALGARQAELTVQVKEGPPSEHSGISRNGGGSGAPTSSSTKKTQLQLEHLRLDLEMILNGINNYKNPKLTDMLTFEFYMPKKATELKHLQCLERELKPLEEVLNLAQSKNFHLRPRDLISNINVIVLELKGSETTFMCEYADETATIVEFLNRWITFCQSIISTLTGGGGSGGGDKTHTCPPCPAPEKKGGPSVFLFPPKPKDTLMISRTPEVTCVVVDVSHEDPEVKFNWYVDGVEVHNAKTKPREEQYNSTYRVVSVLTVLHQDWLNGKEYKCKVSNKALPAPIEKTISKAKGQPREPQVYVLPPSREEMTKNQVSLLCLVKGFYPSDIAVEWESNGQPENRYMTWPPVLDSDGSFFLYSKLTVDKSRWQQGNVFSCSVMHEALHNHYTQKSLSLSPGK
2,15,IL-2(L18R/Q22E/R38D/K43E/E61R/Q126T)/CD155-Fc (Fc fusion) chain 1: WPPPGTGDVVVQAPTQVPGFLGDSVTLPCYLQVPNMEVTHVSQLTWARHGESGSMAVFHQTQGPSYSESKRLEFVAARLGAELRNASLRMFGLRVEDEGNYTCLFVTFPQGSRSVDIWLRVLAKPQNTAEVQKVQLTGEPVPMARCVSTGGRPPAQITWHSDLGGMPNTSQVPGFLSGTVTVTSLWILVPSSQVDGKNVTCKVEHESFEKPQLLTVNLTVYYPPEVSISGYDNNWYLGQNEATLTCDARSNPEPTGYNWSTTMGPLPPFAVAQGAQLLIRPVDKPINTTLICNVTNALGARQAELTVQVKEGPPSEHSGISRNGGGGSGGGDKTHTCPPCPAPEDEGGPSVFLFPPKPKDTLMISRTPEVTCVVVDVSHEDPEVKFNWYVDGVEVHNAKTKPREEQYNSTYRVVSVLTVLHQDWLNGKEYKCKVSNKALPAPIEKTISKAKGQPREPQVYVYPPSREEMTKNQVSLTCLVKGFYPSDIAVEWESNGQPENNYKTTPPVLDEDGSFALVSKLTVDKSRWQQGNVFSCSVMHEALHNHYTQKSLSLSPGK chain 2: WPPPGTGDVVVQAPTQVPGFLGDSVTLPCYLQVPNMEVTHVSQLTWARHGESGSMAVFHQTQGPSYSESKRLEFVAARLGAELRNASLRMFGLRVEDEGNYTCLFVTFPQGSRSVDIWLRVLAKPQNTAEVQKVQLTGEPVPMARCVSTGGRPPAQITWHSDLGGMPNTSQVPGFLSGTVTVTSLWILVPSSQVDGKNVTCKVEHESFEKPQLLTVNLTVYYPPEVSISGYDNNWYLGQNEATLTCDARSNPEPTGYNWSTTMGPLPPFAVAQGAQLLIRPVDKPINTTLICNVTNALGARQAELTVQVKEGPPSEHSGISRNGGGSGAPTSSSTKKTQLQLEHLRLDLEMILNGINNYKNPKLTDMLTFEFYMPKKATELKHLQCLERELKPLEEVLNLAQSKNFHLRPRDLISNINVIVLELKGSETTFMCEYADETATIVEFLNRWITFCTSIISTLTGGGGSGGGDKTHTCPPCPAPEKKGGPSVFLFPPKPKDTLMISRTPEVTCVVVDVSHEDPEVKFNWYVDGVEVHNAKTKPREEQYNSTYRVVSVLTVLHQDWLNGKEYKCKVSNKALPAPIEKTISKAKGQPREPQVYVLPPSREEMTKNQVSLLCLVKGFYPSDIAVEWESNGQPENRYMTWPPVLDSDGSFFLYSKLTVDKSRWQQGNVFSCSVMHEALHNHYTQKSLSLSPGK
